Experiment in all cases: NanoBRET
A general note: Bioluminescence resonance energy transfer reports proximity on the nanometre scale.

For assay [1], the target named is Halo-SSX-C (HaloTag fused to the SSX1 C-terminal region present in SS18-SSX1). The following applies: live HEK293T cells; mean ± S.E.M of n = 3 biological replicates; parent: est. 72; read off a plot.
The target of assay [2] is Halo-SSX-C^ΔRD (SSX-C with a deletion of the SSXRD). The note with it: live HEK293T cells; mean ± S.E.M of n = 3 biological replicates; parent: est. 19; read off a plot.
The target in assay [3] is Halo-SSX-C^E184* (SSX-C mutant lacking the last five amino acids). The following applies: live HEK293T cells; mean ± S.E.M of n = 3 biological replicates; parent: est. 40; read off a plot.

The values that follow come from paper PMC10643139.

With “histone H2A fused to NanoLuc luciferase (NLuc-H2A) (from UniProt P0C0S8) K118R; K119R”, the response in assay [1] was 42 mBU; in assay [2], 16 mBU; in assay [3], 36 mBU.
